Reference: US20250152742A1, “COMPOSITIONS AND METHODS FOR NEUROLOGICAL DISEASES” (Trames Bio, Inc., priority 2022, published 2025)

Tested on: engineered chimeric receptor SEQ ID NO: 33 and its mutants (human α7-nAChR ligand binding domain / human GlyRα1 ion pore domain) in Lenti-X 293T cells
Assay: YFP fluorescence quenching anion reporter plate reader assay (percent quench, EC50)
Type: cell-based
Details: for YFP fluorescence quenching using CNL001 (percent quench): receptor named in row
Summary of the method: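 Lenti-X 293T cells co-expressing an anion-quenchable YFP were transiently transfected with receptor DNA, then ligand was added in NaI-substituted buffer (pH 7.2) after 30 min at 37 °C. Fluorescence was read about 2 min; percent quench = mean of last 10 s over 15 s pre-ligand baseline.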

B1: CODA534: engineered receptor: L131S, S172D in SEQ ID NO: 33 (protein)
chain: MRCSPGGVWLALAASLLHVSLQGEFQRKLYKELVKNYNPLERPVANDSQPLTVYFSLSLLQIMDVDEKNQVLTTNIWLQMSWTDHYLQWNVSEYPGVKTVRFPDGQIWKPDILLYNSADERFDATFHTNVSVNSSGHCQYLPPGIFKSSCPMDLKNFPMDVQTCKLKFGSWDYGGWSLDLQMQEADISGYIPNGEWDLVGIPGKRSERFYECCKEPYPDVTFTVTMRRRMGYYLIQMYIPSLLIVILSWISFWINMDAAPARVGLGITTVLTMTTQSSGSRASLPKVSYVKAIDIWMAVCLLFVFSALLEYAAVNFVSRQHKELLRFRRKRRHHKSPMLNLFQEDEAGEGRFNFSAYGMGPACLQAKDGISVKGANNSNTTNPPPAPSKSPEEMRKLFIQRAKKIDKISRIGFPMAFLIFNMFYWIIYKIVRREDVHNQ
modifications: synthetic sequence of chimeric LGIC
In the case of B1, the “YFP fluorescence quenching using CNL001 (percent quench)” value (1 nM CNL001, first column so headed) is reported as 23.438%, the “YFP fluorescence quenching using CNL001 (percent quench)” value (1 nM CNL001, second column so headed) is reported as 28.59% and the “YFP fluorescence quenching using TC-5619/Bradanicline (percent quench)” value (1 nM brd (TC-5619/Bradanicline)) is reported as −1.13%. For the same molecule, the “YFP fluorescence quenching using TC-5619/Bradanicline (percent quench)” value (3 nM brd (TC-5619/Bradanicline)) was −3.83%, the “YFP fluorescence quenching using CNL001 (percent quench)” value (10 nM CNL001, first column so headed) was 56.882% and the “YFP fluorescence quenching using CNL001 (percent quench)” value (10 nM CNL001, second column so headed) was 56.777%. For the same molecule, the “YFP fluorescence quenching using TC-5619/Bradanicline (percent quench)” value (10 nM brd (TC-5619/Bradanicline)) was −3.78%, the “YFP fluorescence quenching using TC-6683 (percent quench)” value (30 nM TC-6683) was −22.464% and the “YFP fluorescence quenching using CNL001 (percent quench)” value (50 nM CNL001, first column so headed) was 65.044%. For the same molecule, the “YFP fluorescence quenching using CNL001 (percent quench)” value (50 nM CNL001, second column so headed) was 67.373%, the “YFP fluorescence quenching using ABT-126 (percent quench)” value (50 nM abt (ABT-126)) was −11.96% and the “YFP fluorescence quenching using CNL001 (percent quench)” value (100 nM CNL001, first column so headed) was 68.666%. The “YFP fluorescence quenching using CNL001 (percent quench)” value (100 nM CNL001, second column so headed) was 70.357%, the “YFP fluorescence quenching (percent quench)” value (100 nM CNL002) was 14.26% and the “YFP fluorescence quenching using ABT-126 (percent quench)” value (100 nM abt (ABT-126)) was −10.72%. For the same molecule, the “YFP fluorescence quenching using AZD-0328 (percent quench)” value (100 nM azd0328) was −9.32%, the “YFP fluorescence quenching using TC-5619/Bradanicline (percent quench)” value (100 nM brd (TC-5619/Bradanicline)) was −2.03% and the “YFP fluorescence quenching using TC-6683 (percent quench)” value (300 nM TC-6683) was −23.976%. For the same molecule, the “YFP fluorescence quenching using ABT-126 (percent quench)” value (300 nM abt (ABT-126)) was 11.65%, the “YFP fluorescence quenching using AZD-0328 (percent quench)” value (300 nM azd0328) was 4.94% and the “YFP fluorescence quenching using CNL001 (percent quench)” value (1 uM CNL001, first column so headed) was 73.019%. The “YFP fluorescence quenching using CNL001 (percent quench)” value (1 uM CNL001, second column so headed) was 73.527%, the “YFP fluorescence quenching (percent quench)” value (1 uM CNL002) was 45.55% and the “YFP fluorescence quenching using ABT-126 (percent quench)” value (1 uM abt (ABT-126)) was −3.06%. The “YFP fluorescence quenching using TC-5619/Bradanicline (percent quench)” value (1 uM brd (TC-5619/Bradanicline)) was 1.68%, the “YFP fluorescence quenching using TC-6683 (percent quench)” value (3 uM TC-6683) was −24.897% and the “YFP fluorescence quenching (percent quench)” value (10 uM ach (acetylcholine)) was −11.3%. For the same molecule, the “YFP fluorescence quenching (percent quench)” value (30 uM CNL002) was 64.93%, the “YFP fluorescence quenching using TC-6683 (percent quench)” value (30 uM TC-6683) was −20.474% and the “YFP fluorescence quenching using AZD-0328 (percent quench)” value (30 uM azd0328) was 60.61%. For the same molecule, the “YFP fluorescence quenching using TC-6683 (percent quench)” value (100 uM TC-6683) was −22.253%, the “YFP fluorescence quenching (percent quench)” value (100 uM ach (acetylcholine)) was −27.53% and the “YFP fluorescence quenching (percent quench)” value (1 mM ach (acetylcholine)) was 2.84%. The “YFP fluorescence quenching (percent quench)” value (3 mM ach (acetylcholine)) was 14.65%, the “YFP fluorescence quenching using Facinicline, 30 nM fac” value (ligand Facinicline 30 nM) was −23.44 and the “YFP fluorescence quenching using Facinicline, 300 nM fac” value (ligand Facinicline 300 nM) was 2.75. The “YFP fluorescence quenching using Facinicline, 10 uM fac” value (ligand Facinicline 10 uM) was 69.71, the “YFP fluorescence quenching using Facinicline, 30 uM fac” value (ligand Facinicline 30 uM) was 61.44 and the “YFP fluorescence quenching using TC-6987, 1 uM tc6987” value (ligand TC-6987 1 uM) was −20.99. The “YFP fluorescence quenching using TC-6987, 10 uM tc6987” value (ligand TC-6987 10 uM) was −27.62 and the “YFP fluorescence quenching using TC-6987, 500 uM tc6987” value (ligand TC-6987 500 uM) was −24.22.
